B1: SEQ ID NO: 12 (peptide)
peptide: XSQGTFTSDXSKQXESRRAQEFIEWLLXGGPESGAPPPSX
modifications: Tza at 1; Tle at 10; Nle at 14; Bal at 28; Cys(VS-DO3A(Ga)) at 40; C-terminal amide

Experiments:
human glucagon receptor = human glucagon receptor (human, UniProt P47871 26-477); test: cell-based or functional assay
human GLP-1 receptor = human GLP-1 receptor (human, UniProt P43220 24-463); test: cell-based or functional assay

Molecule	EC50 hGLUC R (human glucagon receptor)	EC50 hGLP-1 R [pM] (human GLP-1 receptor)	EC50 hGLUC R [pM] (human glucagon receptor)
HSQGTFTSDYSKYLDSRRAQDFVQWLM^27-N-T-C(VS-DO3A)-NH2 (peptide)	0.7 pM	–	–
XSQGTFXSDLAKQXESRRAQDFIEWLLATGPESGAPPPSX (Tza at 1; Aib at 7; Nle at 14; Cys(VS-DO3A) at 40; C-terminal amide) [SEQ ID NO: 31]	–	1e+07 pM	–
XSQGTFXSDLSKQXESRRAKDFIEWLLATGPESGAPPPSX (Tza at 1; Aib at 7; Nle at 14; Cys(VS-DO3A) at 40; C-terminal amide) [SEQ ID NO: 51]	–	1e+07 pM	–
XSQGTFTSDYSKQLESRRAQEFIEWLLAGGPESGAPPPSX (Tza at 1; Cys(VS-DO3A(Ga)) at 40; C-terminal -OH) [SEQ ID NO: 80]	–	5130 pM	0.7 pM
XSQGTFXSDLSKQXESRRAQDFIEWLLATGPESGAPPPSX (Tza at 1; Aib at 7; Nle at 14; Cys(mal-NODAGA) at 40; C-terminal amide) [SEQ ID NO: 17]	–	1e+07 pM	–
XSQGTFTSDYSKQLESRRAQEFIEWLLAGGPESGAPPPSX (Tza at 1; Cys(mal-NODAGA(Ga)) at 40; C-terminal amide) [SEQ ID NO: 10]	–	–	0.9 pM
XXQGTFTSDYSKQLDEQRAQEFIEWLLATGPESGAPPPSX (Tza at 1; D-Ser at 2; Cys(VS-DO3A(Ga)) at 40; C-terminal amide) [SEQ ID NO: 86]	–	115000 pM	0.9 pM
XSQGTFTSDISKQXESRRAQEFIEWLLATGPESGAPPPSX (Tza at 1; Nle at 14; Cys(VS-DO3A(Ga)) at 40; C-terminal amide) [SEQ ID NO: 36]	–	65300 pM	–
XSQGTFTSDTSKQLESRRAQEFIEWLLATGPESGAPPPSX (Tza at 1; Cys(VS-DO3A(Ga)) at 40; C-terminal amide) [SEQ ID NO: 48]	–	297000 pM	60.1 pM
XSQGTFTSDTSKQLESRRAQEFIEWLLATGPESGAPPPSX (Tza at 1; Cys(VS-DO3A) at 40; C-terminal amide) [SEQ ID NO: 47]	–	1e+07 pM	–
XSQGTFTSDYSRQLESRRAQEFIEWLLATGPESGAPPPSX (Tza at 1; Lys(VS-DO3A(Ga)) at 40; C-terminal amide) [SEQ ID NO: 44]	–	–	0.8 pM
XSQGTFTSDYSKQLESRRAQEFIEWLLAGGPESGAPPPSX (Tza at 1; Cys(mal-DOTA(Ga)) at 40; C-terminal amide) [SEQ ID NO: 7]	–	7530 pM	–
XSQGTFTSDYSKQLESRRAQEFIEWLLATGPESGAPPPSX (Tza at 1; Cys(VS-DO3A(Ga)) at 40; C-terminal amide) [SEQ ID NO: 34]	–	18800 pM	0.8 pM
B1	–	12900 pM	0.7 pM
XSQGTFTSDYSKQLESRRAQEFIEWLLAGGPESGAPPPSX (Tza at 1; Cys(VS-DO3A(Ga)) at 40; C-terminal amide) [SEQ ID NO: 8]	–	4130 pM	–
XSQGTFXSDLSKQXESRRAQDFIEWLLATGPESGAPPPSX (Tza at 1; Aib at 7; Nle at 14; Cys(mal-NOTA) at 40; C-terminal amide) [SEQ ID NO: 16]	–	1e+07 pM	–
XSQGTFTSDYSKQLESRRAQEFIEWLLAGGPESGAPPPSX (Tza at 1; Cys(mal-NOTA(Ga)) at 40; C-terminal amide) [SEQ ID NO: 9]	–	4200 pM	1 pM

Reference: patent US20200262885A1 (ANTAROS MEDICAL, published 2020)
